# Laboratory results taken from IntAct's records for PubMed 17954914.
# B1: Calcipressin-like protein (Saccharomyces cerevisiae), P36054 (parent)
# chain: MGNIITDTIIITSDKCDIVDNDNVERIQVWLSKNILRKFQINENEPLQLIILKRFKRILLICPSHDISQHVMDASRALEMENFNFSYSLQDGQRNLTKQYLKVPESEKMFLISPPASPPPEFDFSKCEDAPQRHIQSHIQQDQQQRLEASQLLPNNPDKNNNGTFTLLKSKVGAITIDRCPTNDGNGQMQLADHVKTAFPPKSIFDTDDDD
# partner: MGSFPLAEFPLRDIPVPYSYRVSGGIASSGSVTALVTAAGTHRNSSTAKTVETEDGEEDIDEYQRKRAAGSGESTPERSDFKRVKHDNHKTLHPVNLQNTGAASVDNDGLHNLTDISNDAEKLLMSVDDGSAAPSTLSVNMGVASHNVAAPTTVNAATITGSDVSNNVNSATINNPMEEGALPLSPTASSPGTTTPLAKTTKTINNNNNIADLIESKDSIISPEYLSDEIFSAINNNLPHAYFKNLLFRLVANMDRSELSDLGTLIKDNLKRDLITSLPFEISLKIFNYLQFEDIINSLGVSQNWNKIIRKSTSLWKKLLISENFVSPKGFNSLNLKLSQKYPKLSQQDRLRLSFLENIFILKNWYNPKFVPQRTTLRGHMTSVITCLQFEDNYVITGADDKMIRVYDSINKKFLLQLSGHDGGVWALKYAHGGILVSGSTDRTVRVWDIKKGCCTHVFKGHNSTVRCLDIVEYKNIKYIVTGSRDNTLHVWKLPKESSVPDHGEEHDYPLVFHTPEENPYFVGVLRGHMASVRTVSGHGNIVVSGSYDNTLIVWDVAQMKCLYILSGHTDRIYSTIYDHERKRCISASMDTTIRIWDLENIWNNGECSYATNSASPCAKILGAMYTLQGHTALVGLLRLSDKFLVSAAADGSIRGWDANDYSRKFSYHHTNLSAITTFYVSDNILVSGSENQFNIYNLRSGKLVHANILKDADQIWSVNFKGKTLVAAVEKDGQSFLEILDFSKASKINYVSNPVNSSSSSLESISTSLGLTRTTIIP
# Variants of: B1
# Details: with cdc4_yeast CDC4, P07834
row,effect of a mutation on the interaction,Variant
1,disrupting interaction strength,MGNIITDTIIITSDKCDIVDNDNVERIQVWLSKNILRKFQINENEPLQLIILKRFKRILLICPSHDISQHVMDASRALEMENFNFSYSLQDGQRNLTKQYLKVPESEKMFLIAPPAAPPPEFDFSKCEDAPQRHIQSHIQQDQQQRLEASQLLPNNPDKNNNGTFTLLKSKVGAITIDRCPTNDGNGQMQLADHVKTAFPPKSIFDTDDDD [S113A;S117A]
2,disrupting interaction,MGNIITDTIIITSDKCDIVDNDNVERIQVWLSKNILRKFQINENEPLQLIILKRFKRILLICPSHDISQHVMDASRALEMENFNFSYSLQDGQRNLTKQYLKVPESEKMFLIAPPASPPPEFDFSKCEDAPQRHIQSHIQQDQQQRLEASQLLPNNPDKNNNGTFTLLKSKVGAITIDRCPTNDGNGQMQLADHVKTAFPPKSIFDTDDDD [S113A]
3,disrupting interaction,MGNIITDTIIITSDKCDIVDNDNVERIQVWLSKNILRKFQINENEPLQLIILKRFKRILLICPSHDISQHVMDASRALEMENFNFSYSLQDGQRNLTKQYLKVPESEKMFLISPPAAPPPEFDFSKCEDAPQRHIQSHIQQDQQQRLEASQLLPNNPDKNNNGTFTLLKSKVGAITIDRCPTNDGNGQMQLADHVKTAFPPKSIFDTDDDD [S117A]
